We go through 94 variants from the supplement of paper PMC10567573.

The labels stand for the following.
B1: CCDC70 (parent)
chain: FSFKVSRWMGLACFRSLAASSPSI
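Also: lentivirally expressed fusions sorted by FACS into six bins by GFP to DsRed ratio, PSI derived from sequencing read proportions per bin multiplied by bin number.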

In this data set the parent is B1. Kind of data set: protein stability index of a GFP-peptide fusion (GPS, HEK-293T) (PSI 1-6); higher = more stable. As to conditions: c terminus: a fixed tail appended.
In the case of RSFKVSRWMGLACFRSLAASSPSI [F1R], the protein stability index turned out to be 2.08.

Take WSFKVSRWMGLACFRSLAASSPSI [F1W]: the protein stability index amounted to 2.34.

For the variant NSFKVSRWMGLACFRSLAASSPSI [F1N], the protein stability index worked out at 2.35.

In the case of QSFKVSRWMGLACFRSLAASSPSI [F1Q], the protein stability index is 2.12.

As for DSFKVSRWMGLACFRSLAASSPSI [F1D], the protein stability index turned out to be 1.25.

Regarding ESFKVSRWMGLACFRSLAASSPSI [F1E], the protein stability index was 3.1.

GSFKVSRWMGLACFRSLAASSPSI [F1G]: the protein stability index was determined as 2.57.

In the case of ISFKVSRWMGLACFRSLAASSPSI [F1I], the protein stability index turned out to be 1.68.

Consider PSFKVSRWMGLACFRSLAASSPSI [F1P], for which the protein stability index came to 2.2.

With FSFTVSRWMGLACFRSLAASSPSI [K4T], the protein stability index turned out to be 2.38.

As for FSFMVSRWMGLACFRSLAASSPSI [K4M], the protein stability index was 2.34.

Regarding FSFVVSRWMGLACFRSLAASSPSI [K4V], the protein stability index is 3.11.

Consider FSFEVSRWMGLACFRSLAASSPSI [K4E], for which the protein stability index was 1.92.

Regarding FSFIVSRWMGLACFRSLAASSPSI [K4I], the protein stability index was 3.39.

Take FSFRVSRWMGLACFRSLAASSPSI [K4R]: the protein stability index worked out at 2.22.

Regarding FSFWVSRWMGLACFRSLAASSPSI [K4W], the protein stability index was 4.77.

For the variant FSFAVSRWMGLACFRSLAASSPSI [K4A], the protein stability index was found to be 2.38.

For the variant FSFYVSRWMGLACFRSLAASSPSI [K4Y], the protein stability index came out at 3.24.

In the case of FSFGVSRWMGLACFRSLAASSPSI [K4G], the protein stability index worked out at 2.99.

For FSFCVSRWMGLACFRSLAASSPSI [K4C], the protein stability index was 3.35.

For the variant FSFPVSRWMGLACFRSLAASSPSI [K4P], the protein stability index worked out at 1.65.

As for FSFNVSRWMGLACFRSLAASSPSI [K4N], the protein stability index is 2.51.

Take FSFLVSRWMGLACFRSLAASSPSI [K4L]: the protein stability index was found to be 3.31.

As for FSFHVSRWMGLACFRSLAASSPSI [K4H], the protein stability index turned out to be 2.73.

FSFSVSRWMGLACFRSLAASSPSI [K4S]: the protein stability index was 3.25.

For the variant FSFDVSRWMGLACFRSLAASSPSI [K4D], the protein stability index was 3.56.

As for FSFKLSRWMGLACFRSLAASSPSI [V5L], the protein stability index is 2.22.

Turning to FSFKNSRWMGLACFRSLAASSPSI [V5N], the protein stability index is 2.78.

Turning to FSFKMSRWMGLACFRSLAASSPSI [V5M], the protein stability index stood at 2.01.

In the case of FSFKQSRWMGLACFRSLAASSPSI [V5Q], the protein stability index was 3.04.

As to FSFKGSRWMGLACFRSLAASSPSI [V5G], the protein stability index is 2.54.

As for FSFKYSRWMGLACFRSLAASSPSI [V5Y], the protein stability index was found to be 2.98.

As to FSFKASRWMGLACFRSLAASSPSI [V5A], the protein stability index is 3.24.

Regarding FSFKPSRWMGLACFRSLAASSPSI [V5P], the protein stability index was found to be 2.21.

Turning to FSFKKSRWMGLACFRSLAASSPSI [V5K], the protein stability index was 2.28.

For the variant FSFKCSRWMGLACFRSLAASSPSI [V5C], the protein stability index is 2.92.

As to FSFKESRWMGLACFRSLAASSPSI [V5E], the protein stability index amounted to 1.29.

With FSFKWSRWMGLACFRSLAASSPSI [V5W], the protein stability index was found to be 2.13.

For FSFKISRWMGLACFRSLAASSPSI [V5I], the protein stability index is 1.72.

Take FSFKRSRWMGLACFRSLAASSPSI [V5R]: the protein stability index amounted to 3.55.

As for FSFKTSRWMGLACFRSLAASSPSI [V5T], the protein stability index worked out at 2.77.

For the variant FSFKHSRWMGLACFRSLAASSPSI [V5H], the protein stability index was determined as 2.

FSFKDSRWMGLACFRSLAASSPSI [V5D]: the protein stability index was found to be 1.73.

Take FSFKFSRWMGLACFRSLAASSPSI [V5F]: the protein stability index was 2.74.

For the variant FSQKVSRWMGLACFRSLAASSPSI [F3Q], the protein stability index stood at 1.92.

FSCKVSRWMGLACFRSLAASSPSI [F3C]: the protein stability index was determined as 2.74.

Turning to FSWKVSRWMGLACFRSLAASSPSI [F3W], the protein stability index worked out at 1.82.

Consider FSRKVSRWMGLACFRSLAASSPSI [F3R], for which the protein stability index stood at 3.02.

For FSHKVSRWMGLACFRSLAASSPSI [F3H], the protein stability index came to 1.87.

For FSAKVSRWMGLACFRSLAASSPSI [F3A], the protein stability index amounted to 3.33.

For FSKKVSRWMGLACFRSLAASSPSI [F3K], the protein stability index amounted to 1.39.

Regarding FSSKVSRWMGLACFRSLAASSPSI [F3S], the protein stability index was determined as 2.6.

As to FSEKVSRWMGLACFRSLAASSPSI [F3E], the protein stability index stood at 2.21.

Take FSLKVSRWMGLACFRSLAASSPSI [F3L]: the protein stability index was determined as 4.25.

Turning to FSNKVSRWMGLACFRSLAASSPSI [F3N], the protein stability index came out at 2.5.

Consider FSTKVSRWMGLACFRSLAASSPSI [F3T], for which the protein stability index is 1.83.

Consider FSPKVSRWMGLACFRSLAASSPSI [F3P], for which the protein stability index is 2.57.

Turning to FSVKVSRWMGLACFRSLAASSPSI [F3V], the protein stability index came out at 1.38.

Turning to FSIKVSRWMGLACFRSLAASSPSI [F3I], the protein stability index came to 2.92.

For FSDKVSRWMGLACFRSLAASSPSI [F3D], the protein stability index is 1.63.

For the variant FSFKVLRWMGLACFRSLAASSPSI [S6L], the protein stability index is 2.29.

For FSFKVYRWMGLACFRSLAASSPSI [S6Y], the protein stability index amounted to 2.88.

For FSFKVMRWMGLACFRSLAASSPSI [S6M], the protein stability index worked out at 2.17.

Take FSFKVWRWMGLACFRSLAASSPSI [S6W]: the protein stability index is 3.02.

As to FSFKVPRWMGLACFRSLAASSPSI [S6P], the protein stability index is 2.51.

On to FSFKVCRWMGLACFRSLAASSPSI [S6C], for which the protein stability index was determined as 2.82.

Consider FSFKVFRWMGLACFRSLAASSPSI [S6F], for which the protein stability index was found to be 1.69.

Regarding FSFKVGRWMGLACFRSLAASSPSI [S6G], the protein stability index is 2.88.

As to FSFKVVRWMGLACFRSLAASSPSI [S6V], the protein stability index came out at 4.41.

Take FSFKVQRWMGLACFRSLAASSPSI [S6Q]: the protein stability index turned out to be 3.43.

As to FSFKVTRWMGLACFRSLAASSPSI [S6T], the protein stability index worked out at 2.43.

Regarding FSFKVKRWMGLACFRSLAASSPSI [S6K], the protein stability index came to 2.24.

With FSFKVDRWMGLACFRSLAASSPSI [S6D], the protein stability index was found to be 2.35.

As for FSFKVERWMGLACFRSLAASSPSI [S6E], the protein stability index worked out at 3.26.

With FSFKVIRWMGLACFRSLAASSPSI [S6I], the protein stability index was 2.7.

Turning to FSFKVRRWMGLACFRSLAASSPSI [S6R], the protein stability index came out at 2.09.

Take FSFKVARWMGLACFRSLAASSPSI [S6A]: the protein stability index was 2.99.

Regarding FSFKVNRWMGLACFRSLAASSPSI [S6N], the protein stability index worked out at 3.31.

Turning to FFFKVSRWMGLACFRSLAASSPSI [S2F], the protein stability index worked out at 3.87.

As for FIFKVSRWMGLACFRSLAASSPSI [S2I], the protein stability index came out at 3.26.

For FGFKVSRWMGLACFRSLAASSPSI [S2G], the protein stability index turned out to be 1.56.

FCFKVSRWMGLACFRSLAASSPSI [S2C]: the protein stability index was 3.54.

On to FPFKVSRWMGLACFRSLAASSPSI [S2P], for which the protein stability index is 2.37.

Take FHFKVSRWMGLACFRSLAASSPSI [S2H]: the protein stability index worked out at 1.33.

On to FQFKVSRWMGLACFRSLAASSPSI [S2Q], for which the protein stability index was 3.39.

For FDFKVSRWMGLACFRSLAASSPSI [S2D], the protein stability index worked out at 2.19.

For FYFKVSRWMGLACFRSLAASSPSI [S2Y], the protein stability index was determined as 2.62.

Regarding FVFKVSRWMGLACFRSLAASSPSI [S2V], the protein stability index was determined as 1.84.

FAFKVSRWMGLACFRSLAASSPSI [S2A]: the protein stability index was 1.82.

On to FTFKVSRWMGLACFRSLAASSPSI [S2T], for which the protein stability index came out at 2.69.

FRFKVSRWMGLACFRSLAASSPSI [S2R]: the protein stability index turned out to be 1.49.

On to FNFKVSRWMGLACFRSLAASSPSI [S2N], for which the protein stability index came out at 2.32.

As for FKFKVSRWMGLACFRSLAASSPSI [S2K], the protein stability index is 2.59.

As to FMFKVSRWMGLACFRSLAASSPSI [S2M], the protein stability index stood at 2.1.
